Consider 8 molecules from patent publication US20170112792A1 (BETH ISRAEL DEACONESS MEDICAL CENTER, published 2017).

B8: Erk1 (enzyme, human, UniProt P27361 1-379, looked up)
chain: MAAAAAQGGGGGEPRRTEGVGPGVPGEVEMVKGQPFDVGPRYTQLQYIGEGAYGMVSSAYDHVRKTRVAIKKISPFEHQTYCQRTLREIQILLRFRHENVIGIRDILRASTLEAMRDVYIVQDLMETDLYKLLKSQQLSNDHICYFLYQILRGLKYIHSANVLHRDLKPSNLLINTTCDLKICDFGLARIADPEHDHTGFLTEYVATRWYRAPEIMLNSKGYTKSIDIWSVGCILAEMLSNRPIFPGKHYLDQLNHILGILGSPSQEDLNCIINMKARNYLQSLPSKTKVAWAKLFPKSDSKALDLLDRMLTFNPNKRITVEEALAHPYLEQYYDPTDEPVAEEPFTFAMELDDLPKERLKELIFQETARFQPGVLEAP
notes: entries are written once for Erk1 and once for Erk2; also called Erk1/2 (member Erk1); total Erk1/2

One experiment deals with T1, IRAKM P111A (UniProt Q9Y616 1-596).
T1 construct: also called P111A mutant; P111 mutation
T1 sequence (looked up): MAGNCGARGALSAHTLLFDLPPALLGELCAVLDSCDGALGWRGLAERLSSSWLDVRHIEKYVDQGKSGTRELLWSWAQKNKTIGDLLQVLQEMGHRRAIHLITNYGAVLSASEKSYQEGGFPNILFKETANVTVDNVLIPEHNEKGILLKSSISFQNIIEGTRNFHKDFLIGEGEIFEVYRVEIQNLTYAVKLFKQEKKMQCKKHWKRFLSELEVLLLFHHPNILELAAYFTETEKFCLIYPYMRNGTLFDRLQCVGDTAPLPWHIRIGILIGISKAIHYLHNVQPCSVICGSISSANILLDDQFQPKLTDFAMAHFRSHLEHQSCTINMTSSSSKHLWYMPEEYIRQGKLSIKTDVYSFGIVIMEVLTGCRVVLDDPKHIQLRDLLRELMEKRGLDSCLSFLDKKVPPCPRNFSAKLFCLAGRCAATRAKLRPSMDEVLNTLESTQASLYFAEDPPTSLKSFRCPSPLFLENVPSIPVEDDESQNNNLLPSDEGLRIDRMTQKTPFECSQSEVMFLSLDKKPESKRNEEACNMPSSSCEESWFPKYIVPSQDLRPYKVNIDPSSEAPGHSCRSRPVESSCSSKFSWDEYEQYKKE
Briefly: co-IP with anti-IRAKM antibody from DC2.4 cells stably expressing P111A, western blot for Pin1.

Experiment [1] deals with B8. Briefly: Flag co-IP from HEK293 cells transfected with Flag-Rab2A with or without AcMEK1, western blot. On the technique in general: A western blot detects proteins with antibodies after separation by electrophoresis.
The target in experiment [2] is T2, Erk2 (human, UniProt P28482 1-360).
T2 construct: entries are written once for Erk1 and once for Erk2; also called Erk1/2 (member Erk2); total Erk1/2
T2 sequence (P28482 whole entry): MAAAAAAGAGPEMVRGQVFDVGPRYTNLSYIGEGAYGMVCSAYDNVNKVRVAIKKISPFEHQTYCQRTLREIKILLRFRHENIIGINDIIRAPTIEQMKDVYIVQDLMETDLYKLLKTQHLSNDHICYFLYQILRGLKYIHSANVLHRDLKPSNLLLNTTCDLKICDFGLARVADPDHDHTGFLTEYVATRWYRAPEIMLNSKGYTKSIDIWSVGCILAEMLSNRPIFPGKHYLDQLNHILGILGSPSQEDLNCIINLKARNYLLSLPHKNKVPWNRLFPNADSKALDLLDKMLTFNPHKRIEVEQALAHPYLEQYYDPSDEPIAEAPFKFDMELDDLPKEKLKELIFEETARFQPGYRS
The description is as above.

The target in experiment [3] is T3, p-Erk1 (phosphorylated Erk1) (human, UniProt P27361 2-379, phosphorylated (p-Erk1/2, induced by constitutively active MEK1); sites not given).
T3 construct: also called p-Erk1/2 (member Erk1)
The description is as above.

The target in experiment [4] is T4, p-Erk2 (phosphorylated Erk2) (human, UniProt P28482 2-360, phosphorylated (p-Erk1/2, induced by constitutively active MEK1); sites not given).
T4 construct: also called p-Erk1/2 (member Erk2)
T4 sequence (P28482 2-360 limits assumed): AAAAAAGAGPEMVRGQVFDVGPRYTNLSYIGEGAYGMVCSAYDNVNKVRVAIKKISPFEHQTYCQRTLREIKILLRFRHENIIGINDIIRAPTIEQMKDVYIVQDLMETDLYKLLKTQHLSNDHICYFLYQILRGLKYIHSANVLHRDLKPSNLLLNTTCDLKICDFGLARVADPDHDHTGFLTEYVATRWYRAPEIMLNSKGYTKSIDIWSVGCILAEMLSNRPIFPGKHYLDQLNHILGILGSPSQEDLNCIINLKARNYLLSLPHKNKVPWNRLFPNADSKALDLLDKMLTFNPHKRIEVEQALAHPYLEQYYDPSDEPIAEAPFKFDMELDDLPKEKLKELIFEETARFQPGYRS
Described as above.

Experiment [5] addresses B8. Briefly: GST pull-down of endogenous Erk1/2 from cell lysate, western blot.
The target of experiment [6] is T2, Erk2. The experiment is described as above.
Experiment [7] deals with T5, IRAKM, overexpressed, from IL-33-treated cells (UniProt Q9Y616 1-596, phosphoserine at 110 (LC-MS/MS of the GST-Pin1-bound protein)).
T5 construct: also called WT IRAKM
T5 sequence (looked up): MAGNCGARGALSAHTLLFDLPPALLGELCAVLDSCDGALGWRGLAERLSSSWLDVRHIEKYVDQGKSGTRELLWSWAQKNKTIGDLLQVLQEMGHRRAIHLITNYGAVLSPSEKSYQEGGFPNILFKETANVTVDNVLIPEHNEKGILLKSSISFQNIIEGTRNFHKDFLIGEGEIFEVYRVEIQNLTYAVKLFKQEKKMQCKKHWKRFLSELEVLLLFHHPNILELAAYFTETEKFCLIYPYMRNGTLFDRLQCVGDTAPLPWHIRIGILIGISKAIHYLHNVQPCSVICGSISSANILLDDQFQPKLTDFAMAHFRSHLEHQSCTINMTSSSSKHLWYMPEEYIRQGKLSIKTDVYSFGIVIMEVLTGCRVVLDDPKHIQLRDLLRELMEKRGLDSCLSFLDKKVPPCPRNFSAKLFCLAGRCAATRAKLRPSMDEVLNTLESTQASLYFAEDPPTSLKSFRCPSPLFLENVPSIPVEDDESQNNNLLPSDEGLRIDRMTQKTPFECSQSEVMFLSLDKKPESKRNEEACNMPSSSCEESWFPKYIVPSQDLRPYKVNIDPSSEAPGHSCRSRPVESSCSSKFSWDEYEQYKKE
Briefly: co-IP with anti-GFP antibody from IL-33-treated HEK293 cells co-expressing IRAKM, western blot for IRAKM.

Experiment [8] addresses B8. Kind of experiment: reciprocal co-IP of endogenous proteins from HMLE lysate, western blot; the Erk1/2 strip does not separate Erk1 from Erk2.
The target in experiment [9] is T2, Erk2. The experiment is described as above.
Experiment [10] addresses T6, IRAKM S110E peptide (IRAKM residues 103-124 with the S110E substitution).
T6 construct: Synthetic peptide; also called IRAKM Ser110E
T6 peptide: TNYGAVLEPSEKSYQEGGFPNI
Briefly: NMR titration, 1H-15N HSQC chemical shift changes.

The target of the next experiment is T7, myc-MKP3 (UniProt Q16828 1-381).
T7 construct: also called MAP kinase phosphatase 3; not shown: myc tag
T7 sequence (looked up): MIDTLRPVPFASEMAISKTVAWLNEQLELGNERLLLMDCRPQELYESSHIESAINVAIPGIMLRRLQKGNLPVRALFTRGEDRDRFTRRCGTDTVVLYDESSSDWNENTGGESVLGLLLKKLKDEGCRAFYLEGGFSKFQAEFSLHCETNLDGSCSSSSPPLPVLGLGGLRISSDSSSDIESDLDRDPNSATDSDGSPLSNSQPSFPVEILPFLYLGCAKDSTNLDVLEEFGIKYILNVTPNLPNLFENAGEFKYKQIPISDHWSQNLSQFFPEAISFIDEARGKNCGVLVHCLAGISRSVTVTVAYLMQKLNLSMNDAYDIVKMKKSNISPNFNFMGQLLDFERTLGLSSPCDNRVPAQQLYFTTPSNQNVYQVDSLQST
Briefly: competition co-IP: Flag IP of 293T lysates with a constant dose of Flag-Rab2A (competitor) and falling doses of myc-MKP3, western blot for Erk1/2.

B1: Pin1, endogenous in DC2.4 cells (enzyme, mouse, UniProt Q9QUR7 1-165, looked up)
chain: MADEEKLPPGWEKRMSRSSGRVYYFNHITNASQWERPSGGSTVGGSSKNGQGEPAKVRCSHLLVKHSQSRRPSSWRQEKITRSKEEALELINGYIQKIKSGEEDFESLASQFSDCSSAKARGDLGPFSRGQMQKPFEDASFALRTGEMSGPVFTDSGIHIILRTE
B1: the binding result in the experiment with IRAKM P111A was “no binding”.

B2: Flag-Rab2A (enzyme, UniProt P61019 1-212, looked up)
chain: MAYAYLFKYIIIGDTGVGKSCLLLQFTDKRFQPVHDLTIGVEFGARMITIDGKQIKLQIWDTAGQESFRSITRSYYRGAAGALLVYDITRRDTFNHLTTWLEDARQHSNSNMVIMLIGNKSDLESRREVKKEEGEAFAREHGLIFMETSAKTASNVEEAFINTAKEIYEKIQEGVFDINNEANGIKIGPQHAATNATHAGNQGGQQAGGGCC
notes: Expressed in HEK293/293T or HMLE cells; also called Flag-tagged wild-type Rab2A; not shown: Flag tag
For B2, the binding result (in the experiment with Erk1 [1]; in the experiment with Erk2 [2]; in experiment [3]; in experiment [4]) was “binds” each time.

B3: GST-Rab2A (wild type) (enzyme, UniProt P61019 1-212, looked up)
chain: MAYAYLFKYIIIGDTGVGKSCLLLQFTDKRFQPVHDLTIGVEFGARMITIDGKQIKLQIWDTAGQESFRSITRSYYRGAAGALLVYDITRRDTFNHLTTWLEDARQHSNSNMVIMLIGNKSDLESRREVKKEEGEAFAREHGLIFMETSAKTASNVEEAFINTAKEIYEKIQEGVFDINNEANGIKIGPQHAATNATHAGNQGGQQAGGGCC
notes: also called wild-type GST-Rab2A fusion protein; not shown: GST tag
Regarding B3, the binding result in the experiment with Erk1 [5] and with Erk2 [6] was “binds” in each case.

B4: GST-Rab2A mut1/2 (enzyme, UniProt P61019 1-212, looked up)
chain: MAYAYLFKYIIIGDTGVGKSCLLLQFTDAAFQPVHDATAGVEFGARMITIDGKQIKLQIWDTAGQESFRSITRSYYRGAAGALLVYDITRRDTFNHLTTWLEDARQHSNSNMVIMLIGNKSDLESRREVKKEEGEAFAREHGLIFMETSAKTASNVEEAFINTAKEIYEKIQEGVFDINNEANGIKIGPQHAATNATHAGNQGGQQAGGGCC
notes: not shown: GST tag
Take B4: the binding result with Erk1 [5] and in the experiment with Erk2 [6] was “no binding” throughout.

B5: GFP-PPlase (other)
chain: GKNGQGEPARVRCSHLLVKHSQSRRPSSWRQEKITRTKEEALELINGYIQKIKSGEEDFESLASQFSDCSSAKARGDLGAFSRGQMQKPFEDASFALRTGEMSGPVFTDSGIHIILRTE
notes: also called GFP fused the Pin1 peptidyl-prolyl cis-trans isomerase (PPlase) domain; GFP-PPlase domain; not shown: GFP
For B5, in experiment [7], the binding result is “no binding”.

B6: endogenous Rab2A (HMLE cells) (enzyme, human, UniProt P61019 2-212, looked up)
chain: AYAYLFKYIIIGDTGVGKSCLLLQFTDKRFQPVHDLTIGVEFGARMITIDGKQIKLQIWDTAGQESFRSITRSYYRGAAGALLVYDITRRDTFNHLTTWLEDARQHSNSNMVIMLIGNKSDLESRREVKKEEGEAFAREHGLIFMETSAKTASNVEEAFINTAKEIYEKIQEGVFDINNEANGIKIGPQHAATNATHAGNQGGQQAGGGCC
For the molecule B6, the binding result in the experiment with Erk1 [8] and with Erk2 [9] was “binds” in each case.

B7: 15N-labeled Pin1 WW domain (Pin1 residues 1-50) (other, UniProt Q13526 1-50, looked up)
chain: MADEEKLPPGWEKRMSRSSGRVYYFNHITNASQWERPSGNSSSGGKNGQG
modifications: uniformly 15N-labeled
notes: range 1-50; also called 15N-Pin1-WW; 15N-Pin1 WW
For B7, the Kd in experiment [10] was determined as 1510 µM.
As for B8, the binding result in the experiment with myc-MKP3 is listed as “binds”.

In general, Kd refers to a measure of binding affinity in units of concentration.
